This is an account of results in article PMC1483224.

T1: MutS (Escherichia coli, UniProt P23909 1-853)
T1 sequence: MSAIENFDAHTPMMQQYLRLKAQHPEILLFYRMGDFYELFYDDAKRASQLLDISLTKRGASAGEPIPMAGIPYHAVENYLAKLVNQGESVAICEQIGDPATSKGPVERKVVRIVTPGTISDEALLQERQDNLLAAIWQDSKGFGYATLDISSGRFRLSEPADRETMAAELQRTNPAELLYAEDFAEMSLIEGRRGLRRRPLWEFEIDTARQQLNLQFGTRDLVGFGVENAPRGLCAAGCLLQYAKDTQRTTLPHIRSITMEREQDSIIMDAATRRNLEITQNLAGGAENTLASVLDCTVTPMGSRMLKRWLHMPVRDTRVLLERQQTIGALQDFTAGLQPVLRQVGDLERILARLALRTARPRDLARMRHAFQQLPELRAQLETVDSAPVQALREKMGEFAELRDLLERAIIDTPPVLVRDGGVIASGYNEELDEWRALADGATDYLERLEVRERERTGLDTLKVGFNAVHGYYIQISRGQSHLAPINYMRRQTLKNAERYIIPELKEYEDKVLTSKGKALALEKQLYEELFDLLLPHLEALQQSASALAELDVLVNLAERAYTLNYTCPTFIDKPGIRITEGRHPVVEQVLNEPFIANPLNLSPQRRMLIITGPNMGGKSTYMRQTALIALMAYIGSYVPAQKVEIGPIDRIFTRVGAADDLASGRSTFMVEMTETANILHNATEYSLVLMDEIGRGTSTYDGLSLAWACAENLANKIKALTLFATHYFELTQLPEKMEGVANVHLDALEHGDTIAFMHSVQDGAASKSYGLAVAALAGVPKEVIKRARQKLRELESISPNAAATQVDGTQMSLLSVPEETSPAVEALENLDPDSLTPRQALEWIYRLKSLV

B1: CT heteroduplex (dsDNA)
DNA 1: GACGAGCCGCCCGCTAGCGTCG
DNA 2: CGACGCTAGCGTGCGGCTCGTC
B2: CC heteroduplex (dsDNA)
DNA 1: GACGAGCCGCCCGCTAGCGTCG
DNA 2: CGACGCTAGCGCGCGGCTCGTC
B3: GT heteroduplex (dsDNA)
DNA 1: GACGAGCCGCGCGCTAGCGTCG
DNA 2: CGACGCTAGCGTGCGGCTCGTC

In the data set the target is T1, MutS. Nature of the data set: impedance spectroscopy, CV.
For the molecule B1, the binding signal was 1680 Ohm/cm (Rct calibration slope as printed).
With B2, the binding signal is 1050 Ohm/cm (Rct calibration slope as printed).
The figure for B3 is 3380 Ohm/cm (Rct calibration slope as printed).
